Measured values published in article PMC4864350, “Fluorogenic Substrates for In Situ Monitoring of Caspase-3 Activity in Live Cells” (PLoS ONE, 2016).
Non-standard residues stand in square brackets, D forms with d. *: point of attachment. MethylRed = CN(C)c1ccc(/N=N/c2ccccc2C(=O)*)cc1; FAM = 5(6)-carboxyfluorescein; peptoid = not defined here; Ahx = NCCCCCC(=O)O

T1: caspase-3 (Homo sapiens, UniProt P42574)
T1 construct: purchased R&D systems, USA
T1 sequence (P42574 29-175 limits assumed): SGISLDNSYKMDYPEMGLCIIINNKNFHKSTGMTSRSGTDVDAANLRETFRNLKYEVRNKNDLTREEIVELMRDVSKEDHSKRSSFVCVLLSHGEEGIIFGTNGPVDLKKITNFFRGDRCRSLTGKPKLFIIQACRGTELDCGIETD
T1 sequence (P42574 176-277 limits assumed): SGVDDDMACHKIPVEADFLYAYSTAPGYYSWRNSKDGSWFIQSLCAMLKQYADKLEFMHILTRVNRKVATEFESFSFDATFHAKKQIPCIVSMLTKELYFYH

T2: caspase-7 (Homo sapiens, UniProt P55210)
T2 construct: purchased R&D systems, USA
T2 sequence (P55210 24-198 limits assumed): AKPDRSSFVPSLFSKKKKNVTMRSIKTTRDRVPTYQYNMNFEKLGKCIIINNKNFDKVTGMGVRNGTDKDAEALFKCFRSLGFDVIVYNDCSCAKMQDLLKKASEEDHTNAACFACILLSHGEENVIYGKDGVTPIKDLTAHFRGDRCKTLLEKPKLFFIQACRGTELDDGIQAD
T2 sequence (P55210 207-303 limits assumed): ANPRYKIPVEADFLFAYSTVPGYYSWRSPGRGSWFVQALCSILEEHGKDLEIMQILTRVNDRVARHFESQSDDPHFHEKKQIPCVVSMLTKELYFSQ

T3: caspase-3 (UniProt P42574)
T3 sequence: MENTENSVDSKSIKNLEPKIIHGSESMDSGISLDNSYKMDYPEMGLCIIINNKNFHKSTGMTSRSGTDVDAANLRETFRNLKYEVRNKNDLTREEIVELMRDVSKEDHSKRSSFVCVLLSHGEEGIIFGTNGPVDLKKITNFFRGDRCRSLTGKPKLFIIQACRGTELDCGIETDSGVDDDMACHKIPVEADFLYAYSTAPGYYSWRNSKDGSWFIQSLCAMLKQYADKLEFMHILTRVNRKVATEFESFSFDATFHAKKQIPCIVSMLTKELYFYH


What was measured:
caspase-3 [1] = molecular target: T1, caspase-3; assay: Kinetic assay of fluorogenic substrates with caspase-3; assay type: biochemical; settings: substrate range 0.1–8 μM, enzyme 20 nM (1–9) or 15 nM (10–14), n = 3; for Km: fluorescence λEx/Em 485/528 nm, initial rate 0–5 min, Michaelis-Menten
Experimental: (§1) The ability of […] (bearing MR as the quencher of choice) to act as s substrate for caspase-3, as well as caspase-7, was investigated by determining the catalytic efficiency (kcat/KM) for each substrate with both enzymes (Table 2).
(§2) Caspase-3 or caspase-7 (R&D systems, USA) was added to 100 μL of caspase assay buffer with substrates 1–14 at concentrations from 0.1 μM to 8 μM in a 96-well plate (n = 3) to give final enzyme concentration of 20 nM (1–9) or 15 nM (10–14). Fluorescence (λEx/Em 485/528 nm) was recorded on a Biotek Synergy HT Multi-Mode Microplate Reader every 2 min. Control samples had the same composition but no enzyme. The rate (μM/min) was calibrated using a 5(6)-carboxyfluorescein conversion factor (0.0055 μM/RFU) and data plotted against time (min). For initial cleavage rate (0–5 min), plots were fitted using linear regression analysis and the Michaelis-Menten data generated using GraphPad Prism 5.

caspase-7 [2] = molecular target: T2, caspase-7; assay: Kinetic assay of fluorogenic substrates with caspase-7; assay type: biochemical; settings: substrate range 0.1–8 μM; enzyme 20 nM (1–9) or 15 nM (10–14); n = 3
Experimental: as §1, §2

caspase-3 [3] = molecular target: T1, caspase-3; assay: Caspase-3-mediated cleavage at high enzyme concentration analysed by MALDI-TOF MS; assay type: biochemical; settings: 10–20 μM substrate, 0.4 μM enzyme; for cleavage by caspase-3 (MALDI-TOF MS): 2 h, 37 °C; for parent compound after incubation with caspase-3: after 2h, MALDI-TOF MS
Experimental: (§3) To confirm how specific 11, 12 and 14 were for caspase-3, these substrates were incubated with high enzyme concentrations (10–20 μM substrate, 0.4 μM enzyme) and the caspase-mediated cleavage analysed by MALDI-TOF MS.
(§4) S2 Fig. (A) MALDI-TOF MS spectra of substrate 11 (sequence Asp-Ala-Pro-Asp). (B) After incubation (20 µM) with Caspase-3 for 2 h. (C) After incubation (20 µM) with Caspase-7 for 2 h (detected as the PBS adduct.)
(§5) Caspase-3 or caspase-7 (R&D systems, USA) was added to 100 µL of caspase assay buffer (final enzyme concentration 0.4 µM) with the substrates at 10–20 µM. The samples were incubated in Eppendorf Thermomixer® Comfort shaking at 1200 rpm for 2h at 37 °C. MALDI -TOF mass spectra were recorded as described in Table S1 .
(§6) (1 picture or pasted object on this page, not shown here)

caspase-7 [4] = molecular target: T2, caspase-7; assay: Caspase-7-mediated cleavage at high enzyme concentration analysed by MALDI-TOF MS; assay type: biochemical; settings: 10–20 μM substrate, 0.4 μM enzyme, 2 h; for cleavage by caspase-7 (MALDI-TOF MS): 37 °C; for cleavage site with caspase-7: MALDI-TOF MS
Experimental: as §3, §4, §5, §6

caspase-3 [5] = molecular target: T3, caspase-3
caspase-3 [6] = molecular target: T3, caspase-3; remark: listed apart in the source

Molecule	KM of cleavage by caspase-3 (fluorogenic Michaelis-Menten kinetics, substrate 0.1-8 μM, 15 nM enzyme) (caspase-3 [5]) [µM]	KM of cleavage by caspase-3 (fluorogenic Michaelis-Menten kinetics) (caspase-3 [6]) [µM]	Km (caspase-3 [1]) [µM]	Kcat, Caspase-3 (caspase-3 [1]) [s⁻¹]	kcat/KM (catalytic efficiency), Caspase-3 (caspase-3 [1]; listed as 11) [M⁻¹ s⁻¹]	Km (caspase-7 [2]) [µM]	kcat, Caspase-7 (caspase-7 [2]) [s⁻¹]	kcat/KM, Caspase-7 (caspase-7 [2]) [M⁻¹ s⁻¹]	cleavage by caspase-3 (MALDI-TOF MS) (caspase-3 [3])	parent compound after incubation with caspase-3 (caspase-3 [3])	cleavage by caspase-7 (MALDI-TOF MS) (caspase-7 [4])	cleavage site with caspase-7 (caspase-7 [4])	kcat/KM (catalytic efficiency), Caspase-3 (caspase-3 [1]; listed as 12) [M⁻¹ s⁻¹]
substrate 11: FRET fluorogenic substrate, recognition Asp-Ala-Pro-Asp, quencher MR, C-terminal peptoid ({FAM-Ahx}-DAPD[Ahx]K(MethylRed)-{peptoid-NH2}; reading uncertain; also: printed as Asp-Ala-Pro-Asp)	–	–	0.4 ± 0.1	0.0217 ± 0.0017	56700	4.9 ± 2.1	0.0267 ± 0.005	5000	cleaved by caspase-3 at the X1 position	no longer detected	(partially) cleaved by caspase-7	between the Ahx spacer and the Lys(MR)	–
substrate 12: FRET fluorogenic substrate, recognition Asp-Leu-Pro-Asp, quencher MR, C-terminal peptoid ({FAM-Ahx}-DLPD[Ahx]K(MethylRed)-{peptoid-NH2}; reading uncertain; also: printed as Asp-Leu-Pro-Asp)	–	–	0.2 ± 0.1	0.0233 ± 0.0033	–	1.4 ± 0.3	0.015 ± 0.0012	12000	cleaved by caspase-3 at the X1 position	no longer detected	(partially) cleaved by caspase-7	between the Ahx spacer and the Lys(MR)	96700
substrate 14: FRET fluorogenic substrate, recognition Asp-Val-Pro-Asp, quencher MR, C-terminal peptoid ({FAM-Ahx}-DVPD[Ahx]K(MethylRed)-{peptoid-NH2}; reading uncertain; also: printed as Asp-Val-Pro-Asp)	–	–	0.2 ± 0.04	0.0283 ± 0.0017	–	3.6 ± 0.9	0.0233 ± 0.0033	6700	cleaved by caspase-3 at the X1 position	no longer detected	(partially) cleaved by caspase-7	between the Ahx spacer and the Lys(MR)	–
{FAM-Ahx}-DAPD[Ahx]K(MethylRed)-{peptoid-NH2} (reading uncertain; also: printed as Asp-Ala-Pro-Asp) [fluorogenic substrate 11 (FAM-Ahx-Asp-Ala-Pro-Asp-Ahx-Lys(MR)-peptoid)]	0.4	–	–	–	–	–	–	–	–	–	–	–	–

Continued, in another order:

KM of cleavage by caspase-3 (fluorogenic Michaelis-Menten kinetics, substrate 0.1-8 μM, 15 nM enzyme) (caspase-3 [5]) [µM]	KM of cleavage by caspase-3 (fluorogenic Michaelis-Menten kinetics) (caspase-3 [6]) [µM]	Molecule	Km (caspase-3 [1]) [µM]	Kcat, Caspase-3 (caspase-3 [1]) [s⁻¹]	kcat/KM (catalytic efficiency), Caspase-3 (caspase-3 [1]; listed as 11) [M⁻¹ s⁻¹]	Km (caspase-7 [2]) [µM]	kcat, Caspase-7 (caspase-7 [2]) [s⁻¹]	kcat/KM, Caspase-7 (caspase-7 [2]) [M⁻¹ s⁻¹]	cleavage by caspase-3 (MALDI-TOF MS) (caspase-3 [3])	parent compound after incubation with caspase-3 (caspase-3 [3])	cleavage by caspase-7 (MALDI-TOF MS) (caspase-7 [4])	cleavage site with caspase-7 (caspase-7 [4])	kcat/KM (catalytic efficiency), Caspase-3 (caspase-3 [1]; listed as 12) [M⁻¹ s⁻¹]
0.2	–	{FAM-Ahx}-DLPD[Ahx]K(MethylRed)-{peptoid-NH2} (reading uncertain; also: printed as FAM-Ahx-Asp-Leu-Pro-Asp-Ahx-Lys(MR)-peptoid) [fluorogenic substrate 12 (FAM-Ahx-Asp-Leu-Pro-Asp-Ahx-Lys(MR)-peptoid)]	–	–	–	–	–	–	–	–	–	–	–
–	1.1	{FAM-Ahx}-DLPDK(MethylRed)-{Ahx-peptoid} (reading uncertain; also: printed as FAM-Ahx-Asp-Leu-Pro-Asp-Lys(MR)-Ahx-peptoid) [fluorogenic substrate 27 (FAM-Ahx-Asp-Leu-Pro-Asp-Lys(MR)-Ahx-peptoid)]	–	–	–	–	–	–	–	–	–	–	–
0.2	–	{FAM-Ahx}-DVPD[Ahx]K(MethylRed)-{peptoid-NH2} (reading uncertain; also: printed as Asp-Val-Pro-Asp) [fluorogenic substrate 14 (FAM-Ahx-Asp-Val-Pro-Asp-Ahx-Lys(MR)-peptoid)]	–	–	–	–	–	–	–	–	–	–	–
